# Test results published in patent US20240010747A1, “ANTI-MRP4 (ENCODED BY ABCC4 GENE) ANTIBODIES AND USES THEREOF” (Kenjockety Biotechnology, Inc., priority 2020, published 2024).
# T1: human ABCC4 (Homo sapiens, UniProt O15439)
# T1 construct: expressed in transfected cells
# T1 sequence (O15439 1-1325): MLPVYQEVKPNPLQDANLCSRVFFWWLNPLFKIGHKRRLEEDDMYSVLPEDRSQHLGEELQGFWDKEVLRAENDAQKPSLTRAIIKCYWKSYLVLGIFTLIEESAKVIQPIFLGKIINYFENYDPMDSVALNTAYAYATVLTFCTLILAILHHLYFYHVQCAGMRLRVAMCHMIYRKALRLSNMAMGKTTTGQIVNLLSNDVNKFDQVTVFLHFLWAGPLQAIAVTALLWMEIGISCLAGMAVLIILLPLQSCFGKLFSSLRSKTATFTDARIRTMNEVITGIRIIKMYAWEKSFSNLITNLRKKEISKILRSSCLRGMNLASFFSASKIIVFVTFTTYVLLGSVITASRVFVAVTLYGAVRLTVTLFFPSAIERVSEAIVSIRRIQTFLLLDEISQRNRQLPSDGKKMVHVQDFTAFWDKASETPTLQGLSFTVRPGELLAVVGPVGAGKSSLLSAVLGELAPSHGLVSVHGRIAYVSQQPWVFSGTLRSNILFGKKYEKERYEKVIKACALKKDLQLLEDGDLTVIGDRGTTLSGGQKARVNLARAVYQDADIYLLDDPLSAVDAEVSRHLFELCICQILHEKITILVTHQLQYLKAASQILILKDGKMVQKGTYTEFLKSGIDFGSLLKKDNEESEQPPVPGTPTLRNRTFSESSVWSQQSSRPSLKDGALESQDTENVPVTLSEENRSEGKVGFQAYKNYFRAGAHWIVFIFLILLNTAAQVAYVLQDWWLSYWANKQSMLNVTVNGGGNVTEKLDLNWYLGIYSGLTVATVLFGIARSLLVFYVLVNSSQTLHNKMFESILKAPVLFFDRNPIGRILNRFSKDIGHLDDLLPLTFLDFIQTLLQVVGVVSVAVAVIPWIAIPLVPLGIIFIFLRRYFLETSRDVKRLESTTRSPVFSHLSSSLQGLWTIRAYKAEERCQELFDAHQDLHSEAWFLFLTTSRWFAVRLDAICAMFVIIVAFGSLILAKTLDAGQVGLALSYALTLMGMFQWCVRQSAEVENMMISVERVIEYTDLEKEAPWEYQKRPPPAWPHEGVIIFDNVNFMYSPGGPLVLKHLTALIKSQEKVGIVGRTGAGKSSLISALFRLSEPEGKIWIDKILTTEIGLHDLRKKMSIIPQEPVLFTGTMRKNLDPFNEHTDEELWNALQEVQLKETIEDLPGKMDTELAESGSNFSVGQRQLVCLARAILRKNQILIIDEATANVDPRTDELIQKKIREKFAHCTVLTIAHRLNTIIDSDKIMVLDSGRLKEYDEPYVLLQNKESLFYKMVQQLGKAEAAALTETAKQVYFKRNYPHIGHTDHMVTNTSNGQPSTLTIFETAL
# Legend:
# [1] = target: T1, human ABCC4; test: Flow cytometry (FACS) binding to C6 cells stably transfected to express human ABCC4 (different experiment, Table 4); details: C6 cells stably transfected to express human ABCC4, FACS; different experiment, Table 4
# Description: (§1) Binding titration of recombinant antibodies to ABCC4 transfectants was performed by serial dilution of antibodies from about 666 nM. Diluted antibody in flow cytometry buffer was incubated with cells on ice for 30 min. After 2 washes with flow cytometry buffer, bound antibody was detected with PE-labeled F(ab′)2 fragment goat anti-human IgG (Jackson ImmunoResearch) diluted 1:200 in flow cytometry buffer and incubated with cells for 20 min on ice. After 2 washes with flow cytometry buffer fluorescence was measured on an Attune N×T flow cytometer. Data were analyzed with GraphPad Prism 8.0 software to determine EC50's.
# (§2) Human embryonic kidney HEK 293T cells and murine C6 (ATCC CCL-107) were transfected with human or cynomolgus ABCC4 cDNA with C-terminal fused FLAG tag in a pMONO-hygro vector with Lipofectamine 3000 (Invitrogen #L3000001). The cells were treated with 0.2 mg/ml and 0.5 mg/ml hygromycin respectively for about 2 weeks while cultivated in DMEM and 10% FBS with 0.2 mg/ml hygromycin and 0.5 mg/ml hygromycin, respectively. The cells were washed with PBS, and stained with […] of anti-FLAG-PE after fixing and permeablization. Clones expressing ABCC4 were single-cell sorted into 200 μl DMEM with 10% FBS using a BD Aria FACS machine and cultivated in 96 well plates using standard techniques in an incubator at 37° C. and 5% CO 2. Two weeks later clones expressing high levels of ABCC4 were screened and amplified.
# (§3) Antibody binding to cells was evaluated by flow cytometry. Murine C6 cells stably transfected to express human or cynomolgus ABCC4 were washed once in flow cytometry buffer (PBS+2% FBS+0.02% sodium azide), resuspended at 2×10^6 cells/mL in flow cytometry buffer, and dispensed into 96-well microtiter plates at 0.1 mL/well. Recombinant antibodies were added to cells at 5 ug/mL for initial binding confirmation, or serially diluted from 100 ug/mL in flow cytometry buffer. After incubating cells on ice for 30 min, cells were washed twice with flow cytometry buffer. Bound antibody was detected with PE-labeled F(ab′)2 fragment goat anti-human IgG (Jackson ImmunoResearch) and evaluated on an Attune N×T flow cytometer. EC50 is calculated to be the concentration of antibody that gives half maximal response.
# (§4) In a different experiment, using a different C6.cC4 cell line, detecting the binding of anti-ABCC4 antibodies to C6 cells stably transfected to express human ABCC4 measured by FACS and to C6 cells stably transfected to express cynomolgus ABCC4 measured by FACS, the results set forth in Table 4 were obtained. Negative (−)=Rmax (MFI) below background level. Positive (+)=MFI>3× background level.
# [2] = system: cynomolgus ABCC4; test: Flow cytometry (FACS) binding to C6 cells stably transfected to express cynomolgus ABCC4 (different experiment, different C6.cC4 cell line, Table 4); set-up: key to Cynomolgus ABCC4 binding: Negative (−)=Rmax (MFI) below background level; Positive (+)=MFI>3× background level; details: different C6.cC4 cell line, C6 cells stably transfected to express cynomolgus ABCC4, FACS; Table 4
# Description: as §1, §2, §3, §4
Molecule,Human ABCC4 binding [1],Cynomolgus ABCC4 binding [2]
"C4.1047A: anti-ABCC4 antibody raised in rats; VH SEQ ID NO: 20, VL SEQ ID NO: 140 (antibody, V domains shown) VH: EVQLMESGPGLVQPSQTLSLTCTVSGLSLISNNINWVRQPPGKGLEWIGAISGGGSAFYNSALKSRLSFSRDTSKSQVFLKMNSLQTEDTAIYFCARGGSEDPDYFDYWGQGVMVTVSS VL: ETVMTQTPSSLAVSAGETVTINCRSSQSLLYSGNQKNYLAWYQQKPGQSPKLLIYWSSTRQYGVPDRFIGSGSGTDFTLTISSVQAEDLAIYYCQQYYDTPLTFGSGTKLELK",+ (Positive (+)=MFI>3× background level),−
"C4.1052: anti-ABCC4 antibody raised in rats; VH SEQ ID NO: 20, VL SEQ ID NO: 141 (antibody, V domains shown) VH: EVQLMESGPGLVQPSQTLSLTCTVSGLSLISNNINWVRQPPGKGLEWIGAISGGGSAFYNSALKSRLSFSRDTSKSQVFLKMNSLQTEDTAIYFCARGGSEDPDYFDYWGQGVMVTVSS VL: DIVMTQSPSSLAVSAGETVTINCKSSQSLLYSGNQKNYLAWYQQKPGQSPKLLIYWSSTRQSGVPDRFMGSGSGTDFTLTISSVQAEDLAIYYCQQYYDTPLTFGSGTKLEIK",+ (Positive (+)=MFI>3× background level),−
"C4.994: anti-ABCC4 antibody raised in rats; VH SEQ ID NO: 17, VL SEQ ID NO: 137 (antibody, V domains shown) VH: QIQLVQSGPELKKPGESVKISCKASGYTFTDYAIHWVTQAPGKGLKWMGWISTYTGKTTYTDDFKGRFVFSLDASASTANLQINNLKNEDTAAYFCARGGLQWFDYWGQGTLVTVSS VL: EILLTQSPTAMAASPGEKVTITCRASFRVSYMHWYQQKPGASPKPWIYDTSKLASGVPTRFSGSGSGTSYSFTISSMETEDTATYYCQQWTSNSRTFGGGTKLVLK",+ (Positive (+)=MFI>3× background level),−
"C4.1006: anti-ABCC4 antibody raised in rats; VH SEQ ID NO: 19, VL SEQ ID NO: 139 (antibody, V domains shown) VH: EVQLTESGPGLVQPSQTLSLTCTVSGFSLTSYDVHWVRQPPGKGLEWMGRMQNGGSTDYNSALKSRLSISRDTSKSQVFLKMNSVQTEDTAMYFCVRSFIIRGYWGQGASVTVSS VL: DIVMTQGALPNPVPSGESASITCQSSKSLLYSDGKTYLNWYLQRPGQSPQLLIYWMSIRASGVSDRFSGSGSGTDFTLKISRVEAEDVGVYYCQQFLEFPYTFGAGTKLEIK",+ (Positive (+)=MFI>3× background level),−
"C4.1071: anti-ABCC4 antibody raised in rats; VH SEQ ID NO: 23, VL SEQ ID NO: 145 (antibody, V domains shown) VH: EVQWKESGPGLVQPSQTLSLTCTVSGFSLTSYGVSWVRQPPGKGLEWIGAIWSGGGTDYNSALKSRLSISRDTSKSQVLLKMNSLQTEDTAMYFCAGNHYFDYWGQGTMVTVSS VL: AIQVTQSPNSLSASLGDRVTLTCRASQDINNKMAWYQQKPGEVPQLLIYSASTLQSGTPSRFSGSGSGTDFSFTISHLQSEDFATYYCLQGYSLYTFGAGTKLELKRADAAP",+ (Positive (+)=MFI>3× background level),−
"C4.1078: anti-ABCC4 antibody raised in rats; VH SEQ ID NO: 26, VL SEQ ID NO: 147 (antibody, V domains shown) VH: EVQLVESGGGLVQPGGSLRLSCAASGFTFTDFYMSWIRQPPGKTPEWLGVIRNKAYVYTTEYNPSVKGRFTISRDNTQNILYLQMNTLRVEDTAIYYCARNWEGFASWGQGTLVTVSS VL: DVVMTQTPPSLSVAIGQSVSISCKSSQSLVYSDGKTYLHWLLENSGRSPKRLIYRVSNLDSGVPDRFSGTGSQKDFTLKISRVEAQDLGVYYCAQTTHFPWTFGGGTKLELK",+ (Positive (+)=MFI>3× background level),−

# More lines, main results first:
Human ABCC4 binding [1],Molecule,Cynomolgus ABCC4 binding [2]
+ (Positive (+)=MFI>3× background level),"C4.1138: anti-ABCC4 antibody raised in rats; VH SEQ ID NO: 29, VL SEQ ID NO: 149 (antibody, V domains shown) VH: EVQLKESGPGLVKPSETLSLTCTVSGFSLTSYHVSWVRQPPGKGLEWMGVIWGDGNTAYNSALKSRLSINRDTSKSQVFLKMNSLQTEDTATYYCARHPYYSIPYWGQGASVTVSS VL: DIVLTQSPTTMAAFPGEKVTITCRASSSVSYMYWYQQKSGASPKSWIYETSKLASGVPDRFSGSGSGTSYSFTISSMETEDAATYYCHQWSSIPLTFGSGTKLEIK",−
+ (Positive (+)=MFI>3× background level),"C4.1145: anti-ABCC4 antibody raised in rats; VH SEQ ID NO: 32, VL SEQ ID NO: 151 (antibody, V domains shown) VH: EVKLVESGGGLVQPGRSLKLSCAASGFTFSNYDMAWVRQAPTKGLEWVASIIPSGGTSYYRDSVKGRFTVSRDNAKSTLYLQMDSLRSEDTATYYCARLTTSHYYVMDAWGQGASVTVSS VL: DIWMTQSPTSMSISVGDRVTMNCKASQNVGSNVDWYQQKTGQSPKLLIYKASNRYTGVPDRFTGSGSGTDFTFTISNMQAEDLAVYYCMQSNSYPWTFGGGTKLELK",−
+ (Positive (+)=MFI>3× background level),"C4.1146: anti-ABCC4 antibody raised in rats; VH SEQ ID NO: 32, VL SEQ ID NO: 152 (antibody, V domains shown) VH: EVKLVESGGGLVQPGRSLKLSCAASGFTFSNYDMAWVRQAPTKGLEWVASIIPSGGTSYYRDSVKGRFTVSRDNAKSTLYLQMDSLRSEDTATYYCARLTTSHYYVMDAWGQGASVTVSS VL: DIWMTKSPSSMSASLGDRVTITCQASQDIGNNLIWFQQKPGKSPRRMIYYATNLANGVPSRFSGSRSGSDYSLTIISLESEDMADYHCLQYKQYPYTFGAGTKLEIK",−
